Experimental data reported in paper PMC6769508.
“And” between values parts separate entries of the source, which are not always exact repeats. Identical values can stand only once.

Assays:
[1] = target: TeKaiCDD, T. elongatus KaiC mutant with Ser431 and Thr432 substituted by aspartate residues (Thermosynechococcus elongatus) (UniProt Q79V60); assay: native MS; TeKaiCDD (20 µM) titrated with KaiB or SasA proteins, incubated at 37 °C for 6 h, buffer-exchanged into 150 mM ammonium acetate, pH 6.8; nanoflow ESI
Sequence of TeKaiCDD, T. elongatus KaiC mutant with Ser431 and Thr432 substituted by aspartate residues (Thermosynechococcus elongatus) (Q79V60 other isoform, or with tags, fused parts or gaps mutant): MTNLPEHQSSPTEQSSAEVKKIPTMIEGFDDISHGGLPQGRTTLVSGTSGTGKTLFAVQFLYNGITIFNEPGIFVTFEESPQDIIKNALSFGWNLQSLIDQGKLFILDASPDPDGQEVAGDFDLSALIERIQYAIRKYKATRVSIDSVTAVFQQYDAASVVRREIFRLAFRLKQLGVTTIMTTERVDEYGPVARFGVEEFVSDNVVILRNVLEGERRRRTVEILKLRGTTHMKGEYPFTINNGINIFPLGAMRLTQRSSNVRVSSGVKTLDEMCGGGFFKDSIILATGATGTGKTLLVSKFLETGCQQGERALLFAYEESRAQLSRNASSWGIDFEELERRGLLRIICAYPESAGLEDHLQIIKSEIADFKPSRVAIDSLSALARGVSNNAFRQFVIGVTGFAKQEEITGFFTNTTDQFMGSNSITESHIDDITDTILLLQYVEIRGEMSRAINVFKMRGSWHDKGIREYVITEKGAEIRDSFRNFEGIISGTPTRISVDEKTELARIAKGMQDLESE

[2] = target: TeSasA, T. elongatus SasA (wild type, full-length) (Thermosynechococcus elongatus); assay: native MS; TeSasA or TeSasAN alone; 150 mM ammonium acetate, pH 6.8

stoichiometry N (binder chains per KaiC hexamer) [1]	stoichiometry N [2]	Substance
2 and 3 and 4	–	TeSasAN, the N-terminal domain of T. elongatus SasA (domain or fragment)
2 and 4 and 6	2	TeSasA, T. elongatus SasA (wild type, full-length) (natural protein)
